# Test results from patent US12636342B2, “TARS derived from Akkermansia muciniphila or fragment thereof, and use thereof” (KOREA RESEARCH INSTITUTE OF BIOSCIENCE AND BIOTECHNOLOGY, priority 2020, dated 2026).
# What was measured:
# [1] = system: Tg (NFκB:EGFP) zebrafish transgenic line; assay: NF-κB activity in DSS-treated Tg (NFκB:EGFP) zebrafish larvae; assay type: in vivo; settings: yolk injection at 3 dpf, 0.5% DSS, analysis at 6 dpf
# Procedure: (A-E) Global gene expression analysis. Total mRNA from BMDMs treated with either AmTARS (0.5 μM) or Pam3 (10 ng ml-1) for 1 or 3 h was isolated and analyzed by RNA sequencing (A). Principle components analysis (PCA) of the gene expression profiles for each sample (B). Hierarchical clustering of gene expression profiles from each sample identified cluster 3 and 4 (C). Gene set enrichment analysis (GSEA) of clusters 3 and 4 with respect to terms related to inflammation (D). […] (F) Overview of the experimental procedures for zebrafish. The yolk of Tg (NFκB:EGFP) transgenic zebrafish larvae (3 dpf) was injected with PBS or AmTARS. Injected larvae were treated at 3 and 5 dpf with 0.5% DSS for 24 h, with a washing period with fresh water for 24 h in between. Sample collection and analysis of Tg (NFκB:EGFP)-based EGFP intensity were conducted at 6 dpf. (G) Representative confocal images showing NF-κB signaling in the mid-distal intestines of PBS- or AmTARS-injected larvae with or without DSS treatment. White dashed lines denote the boundaries of the intestines (based on merged DIC bright field images). (H) Bar graph comparing the fluorescence intensity of the mid-distal intestines of PBS- or AmTARS-injected larvae treated (or not) with DSS (n=32 per PBS group and n=35 per DSS group). […] P-values were calculated by unpaired and two-tailed Student's t-test. […]
# [2] = system: Raw 264.7 cells; assay: ELISA of immune cytokine secretion in LPS-treated Raw 264.7 cells; assay type: cell-based, mouse; settings: Raw 264.7, LPS, 24 h
# Procedure: Next, to determine whether the regulation of immune cytokine secretion by AmTARS in an inflammatory environment was induced by the two functional sites, the mouse-derived immune cell Raw 264.7 cells were treated with LPS to induce an immune response by the method as in Example 3, and treated with AmTARS, ΔU1AmTARS, and ΔU2AmTARS for 24 h separately to obtain cell cultures. The obtained cell cultures were analyzed for Immune cytokine secretion by way of the same method as in Example 2.
# [3] = system: mouse macrophage Raw264.7; assay: Phosphorylation of signal transducers in LPS-treated Raw264.7; assay type: cell-based; settings: Raw264.7, LPS, 0.5 to 3 hours
# Procedure: To determine which signaling pathway was involved in the anti-inflammatory effect by the immune cytokine secretion regulation of […], an inflammatory environment was created through LPS treatment on mouse macrophage Raw264.7 as mouse-derived immune cells, and then changes in phosphorylation of signal transducers involved in the regulation of immune cytokine secretion according to the presence or absence of […] treatment and the elapsed time (0.5 to 3 hours) were investigated. Raw264.7 cells were cultured in DMEM (Hyclone) containing 10% FBS and antibiotics.
# [4] = system: peritoneal macrophages from TLR2-KO mice; assay: M2 macrophage polarization in TLR2-KO mice under non-inflammatory conditions; assay type: in vivo, mouse; settings: 24 h
# Procedure: (A and B) AmTARS interacts directly with TLR2. Pull-down assay using lysates of HEK 293T cells transfected with Strep-AmTARS and TLR2-FLAG (A). The proteins precipitated by an anti-Strep antibody were analyzed by western blotting. In vitro interaction assay using purified TLR2-FLAG and His-tagged AmTARS proteins (B). Purified TLR2-FLAG was mixed with purified His-tagged AmTARS protein. His-tagged protein was precipitated by Ni-NTA, eluted, and analyzed by SDS-PAGE. (C) TLR2-dependent anti-inflammatory function of AmTARS in BMDMs (n=6 per group). (D) The unique regions within AmTARS are essential for anti-inflammatory function in a TLR2-dependent manner (n=8 per wild-type group and n=6 per TLR2 KO group). BMDMs from WT or TLR2-KO mice were treated with the indicated proteins (C and D). (E-I) TLR2-dependent function of AmTARS in vivo. WT or TLR2-KO mice with DSS-induced colitis were injected with either PBS or AmTARS. Daily changes in disease activity scores (E). Intestinal epithelial damage, as analyzed by H&E staining (F), and damage scores (G) (n=3 per group). […] After 24 h, PECs were isolated, and the percentage of M2 macrophages (CD206+CD11b+F4/80+) was measured by flow cytometry. […] P-values were calculated by an unpaired two-tailed Student's t-test.
# [5] = system: BMDMs; assay: Global gene expression profiling (RNA sequencing) of BMDMs; assay type: cell-based, mouse; settings: GSEA (Enrichr)
# Procedure: (A-E) Global gene expression analysis. Total mRNA from BMDMs treated with either AmTARS (0.5 μM) or Pam3 (10 ng ml-1) for 1 or 3 h was isolated and analyzed by RNA sequencing (A). Principle components analysis (PCA) of the gene expression profiles for each sample (B). Hierarchical clustering of gene expression profiles from each sample identified cluster 3 and 4 (C). Gene set enrichment analysis (GSEA) of clusters 3 and 4 with respect to terms related to inflammation (D). […] (F) Overview of the experimental procedures for zebrafish. The yolk of Tg (NFκB:EGFP) transgenic zebrafish larvae (3 dpf) was injected with PBS or AmTARS. Injected larvae were treated at 3 and 5 dpf with 0.5% DSS for 24 h, with a washing period with fresh water for 24 h in between. Sample collection and analysis of Tg (NFκB:EGFP)-based EGFP intensity were conducted at 6 dpf. (G) Representative confocal images showing NF-κB signaling in the mid-distal intestines of PBS- or AmTARS-injected larvae with or without DSS treatment. White dashed lines denote the boundaries of the intestines (based on merged DIC bright field images). (H) Bar graph comparing the fluorescence intensity of the mid-distal intestines of PBS- or AmTARS-injected larvae treated (or not) with DSS (n=32 per PBS group and n=35 per DSS group). (I) Schematic model of the role of AmTARS in maintaining immune homeostasis via TLR2-mediated anti-inflammatory signaling pathways. Data shown in (A-C) are representative and repeated twice. Data shown in (H) are representative of three independent experiments, each similar results (mean±SEM). P-values were calculated by unpaired and two-tailed Student's t-test.
# We next performed global gene expression profiling of BMDMs treated with AmTARS or Pam3 for 1 or 3 h (FIG. 32A). […] Subsets of genes showing different expression patterns between AmTARS and Pam3 were classified into six clusters by hierarchical clustering analysis (FIGS. 33A and 33B). The gene expression pattern at 3 h was particularly different for clusters 3 and 4 (FIGS. 32C, 33A, and 33B). […]
# [6] = system: inflammatory bowel disease mouse model; assay: DSS-induced inflammatory bowel disease mouse model, intramuscular injection; assay type: in vivo
# Excerpt: Further, AmTARS was intramuscularly injected into the mouse model to confirm the anti-inflammatory efficacy thereof.
# [7] = intramuscularly injected at 0.4 mg/kg or more
molecule,measurement,setting,value
"Akkermansia muciniphila-derived threonyl-tRNA synthetase (TARS) (protein, Akkermansia muciniphila TARS) MSEHKERKTLEERQQMSDLERLRHSCAHVLATAICRLWPDAQLAGGPAVDNGFYYDVELDHRISTEDFERIEEEMKKVVKENQVFQKEVISRADAMKMAESGELGALGPRSEPSRFKIDLLNDIPEDEEISLYRNGDFTDLCAGPHVGRTGNCKAFKIMSVASAFYKGDKNRPMLQRIYGTCFPNRTQLDEHLERLEEARRRDHRKLGRELGLFCIDESVGQGLILWKPKGALIRRSLQDFITEELDKLGYSQVYTPNIGKLDLYRTSGHFPYYQESQYAPIPERDAMEKLSQEGASCAELFNGLATGTIEGYMLKPMNCPHHIKIYANDAHSYRDLPVRLAEFGTVYRWEQSGELGGMTRVRGFTQDDAHIFCTPDQLAGEIRQCLGIVKTIFGTLGMTDYRVRLSMRDPESDKYVGSPENWDKAEQALREAAEWLGADYSEEAGEAAFYGPKIDFIVRDAIGREWQLGTVQVDYNLPERFDLHYTGADNKPHRPVMVHRAPFGSMERFTGLLIEHFEGKFPTWLSPEQVRVLPISDKVTDVAAAHRTALAARGVRVTVDETPDKIGAKIRNARLDRVPYMLVLGQREAEDGTVSVRHRDKGDLGAMPFEQFADLVAREIAERHISPVI",NF-κB activity in the distal intestine induced by repeated DSS treatment,[1],significantly dampened
same,secretion of IL-6,[2],reduced in a protein concentration-dependent manner
same,secretion of IL-10,[2],increasingly secreted in an AmTARS concentration-dependent manner
same,secretion of TNF-α,[2],reduced in a protein concentration-dependent manner
same,extracellular signal-regulated kinase (ERK),[3],not affected
same,phosphorylation of NF-kB,[3],distinctive differences in phosphorylation from a control from 2 h
same,phosphorylation of c-Jun N-terminal kinase (JNK),[3],affected through the regulation of phosphorylation from 30 min
same,phosphorylation of p38,[3],distinctive differences in phosphorylation from a control from 2 h
same,M2 macrophage polarization of peritoneal macrophages,"[4]; TLR2-KO mice, non-inflammatory conditions",did not cause M2 macrophage polarization
same,M2 macrophages in PECs isolated from TLR2-KO mice (FIG. 28K),[4]; TLR2-KO,no M2 macrophages were observed
same,transcription factors associated with up-regulated genes,[5],up-regulation of the anti-inflammation-related transcription factor CREB
same,damage to intestinal epithelial cells,[6]; intramuscular injection,alleviate the damage to intestinal epithelial cells
same,intestinal length of the mouse model,[6]; [7],efficacy of decreasing the weight and intestinal length
same,weight of the mouse model,[6]; [7],efficacy of decreasing the weight and intestinal length
